Data published in paper PMC6868513.
Values joined by “and” are separate entries in the source; they are usually repeats but may differ in a detail not shown here. Equal values may be shown once.

How the values were obtained:
soluble Vγ4Vδ1 TCR = experiment: flow cytometry on cells; details: anti-His mAb, read off a plot
[1] = molecular target: BTNL3 IgV domain (wild type) (UniProt Q6UXE8); experiment: SPR; details: parent: est. 1; read off a plot
[2] = molecular target: Soluble endothelial protein C receptor (EPCR) (UniProt Q9UNN8); experiment: SPR; details: parent: est. 1; read off a plot
UniProt Q9UNN8, sequence (Q9UNN8 whole entry, looked up, tested part not stated): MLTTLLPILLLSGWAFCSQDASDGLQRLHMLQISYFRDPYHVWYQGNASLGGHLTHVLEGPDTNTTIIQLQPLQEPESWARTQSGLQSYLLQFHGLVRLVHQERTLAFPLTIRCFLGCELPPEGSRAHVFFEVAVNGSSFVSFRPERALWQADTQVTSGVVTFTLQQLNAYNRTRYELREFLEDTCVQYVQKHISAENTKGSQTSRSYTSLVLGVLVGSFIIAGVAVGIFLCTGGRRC

[3] = molecular target: BTNL3.8 heterodimer on 293T cells (human) (UniProt Q6UXE8)
[4] = molecular target: LES Vγ4Vδ5 TCR, soluble, wild type (human); experiment: SPR; BIAcore3000; biotinylated wt or mutant LES TCR (1000-3500 RU) captured on streptavidin-coated CM5 chip; analyte (BTNL3 or BTNL8 IgV, EPCR) 1-200 μM; HBS-EP; 25°C; equilibrium analysis
[5] = molecular target: LES Vγ4Vδ5 TCR, soluble, wild type (human); experiment: ITC; iTC200; 20°C; 20mM Tris pH 8, 50 mM NaCl; TCR in the cell at 70 μM, BTNL3 at ten-fold higher concentration titrated as 20 × 2 μl injections; single independent binding site model
[6] = molecular target: LES Vγ4Vδ5 TCR, soluble, wild type (human); experiment: SPR; BIAcore3000; biotinylated wt or mutant LES TCR (1000-3500 RU) captured on streptavidin-coated CM5 chip; analyte (BTNL3 or BTNL8 IgV, EPCR) 1-200 μM; HBS-EP; 25°C; equilibrium analysis; remark: listed apart in the source
[7] = molecular target: LES Vγ4Vδ5 TCR, soluble, wild type (human); experiment: SPR; competition: wt EPCR (2500-3000 RU) immobilised on the chip; LES TCR injected at 12.5 μM with increasing BTNL3 IgV (3.5-113 μM) or BTNL8 IgV (2.2-70.5 μM); response as percent of that without competitor
[8] = soluble Vγ4Vδ1 0.1 µg/ml (read from x axis), parent: est. 9.0
[9] = soluble Vγ4Vδ1 10 µg/ml (read from x axis), parent: est. 31
[10] = soluble Vγ4Vδ1 about 2 µg/ml (read from x axis), parent: est. 16

UniProt Q6UXE8, sequence (Q6UXE8 whole entry, looked up, the tested form may be a part): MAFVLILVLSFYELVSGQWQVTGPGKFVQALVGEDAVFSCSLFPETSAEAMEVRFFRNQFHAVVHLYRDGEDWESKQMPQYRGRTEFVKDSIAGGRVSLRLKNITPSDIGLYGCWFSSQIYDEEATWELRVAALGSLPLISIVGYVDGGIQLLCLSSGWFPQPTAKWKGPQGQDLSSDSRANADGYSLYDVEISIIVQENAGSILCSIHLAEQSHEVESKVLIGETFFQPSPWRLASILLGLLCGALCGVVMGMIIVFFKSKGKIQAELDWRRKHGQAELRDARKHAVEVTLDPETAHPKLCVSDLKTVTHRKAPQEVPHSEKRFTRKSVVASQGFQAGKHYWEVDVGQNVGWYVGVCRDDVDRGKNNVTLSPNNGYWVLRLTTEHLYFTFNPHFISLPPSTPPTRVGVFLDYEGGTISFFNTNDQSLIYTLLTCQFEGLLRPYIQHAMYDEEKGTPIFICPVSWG

BTNL3.8 heterodimer on 293T cells (from UniProt Q6UXE8;Q6UX41) EDWESK>KDQPFM (in BTNL3)
response (gMFI fold relative to ctrl) (soluble Vγ4Vδ1 TCR; [8]): 4.1 | response (gMFI fold relative to ctrl) (soluble Vγ4Vδ1 TCR; [9]): 7.7 | response (gMFI fold relative to ctrl) (soluble Vγ4Vδ1 TCR; [10]): 5

BTNL3.8 heterodimer on 293T cells (from UniProt Q6UXE8;Q6UX41) NQFHA>GQFSS (in BTNL3)
response (gMFI fold relative to ctrl) (soluble Vγ4Vδ1 TCR; [8]): 1.2 | response (gMFI fold relative to ctrl) (soluble Vγ4Vδ1 TCR; [9]): 1.2 | response (gMFI fold relative to ctrl) (soluble Vγ4Vδ1 TCR; [10]): 1.4

LES Vγ4Vδ5 TCR, soluble, wild type γ:DSYT>KYSR (CDR2)
ratio to parent [1]: 0.066 | ratio to parent [2]: 1.8

LES Vγ4Vδ5 TCR, soluble, wild type γ:EGST>AWRY (CDR1)
ratio to parent [1]: 1.3 | ratio to parent [2]: 6.6

LES Vγ4Vδ5 TCR, soluble, wild type γ:…>ATWEG--YKKLF (CDR3, as aligned)
ratio to parent [1]: 0.72

LES Vγ4Vδ5 TCR, soluble, wild type γ:…>… (HV4; D>Y; G>A)
ratio to parent [2]: 0.53

LES Vγ4Vδ5 TCR, soluble, wild type γ:…>… (HV4; K>N; M>L)
ratio to parent [1]: 0.38 | ratio to parent [2]: 1.4

LES Vγ4Vδ5 TCR, soluble, wild type δ:NSMF>YRKS (CDR1)
ratio to parent [1]: 0.6 | ratio to parent [2]: 0.25

LES Vγ4Vδ5 TCR, soluble, wild type δ:RGYTG>EGSKW (CDR3)
ratio to parent [1]: 0.3

LES Vγ4Vδ5 TCR, soluble, wild type δ:SSIK>RYRE (CDR2)
ratio to parent [1]: 0.88 | ratio to parent [2]: 1

mo5 Vγ7Vδ2-2 TCR with the CDR2 and HV4 loops of human Vγ4, on Jurkat 76 cells
CD69 expression on transduced J76 cells in response to BTNL3.8-expressing target cells, over control (flow cytometry) [3]: > 3 fold | TCR downmodulation on transduced J76 cells after co-culture with 293T.L3L8 cells, against WT Vγ4 TCR transductants (flow cytometry) ([3]; scale: % of the TCR downmodulation of WT Vγ4 TCR transductants): 90

mo5 Vγ7Vδ2-2 TCR with the HV4 loop of human Vγ4, on Jurkat 76 cells
CD69 expression on transduced J76 cells in response to BTNL3.8-expressing target cells, over control (flow cytometry) [3]: > 3 fold

B1: BTNL3 IgV domain (wild type) (domain or fragment)
chain: QWQVTGPGKFVQALVGEDAVFSCSLFPETSAEAMEVRFFRNQFHAVVHLYRDGEDWESKQMPQYRGRTEFVKDSIAGGRVSLRLKNITPSDIGLYGCWFSSQIYDEEATWELRV
Kd [4]: 15 to 25 µM and 20.7 µM | Kd [5]: 3.5 µM | dH [5]: -8.1 kcal/mol | Kd [6]: 22.1 µM and 20.9 µM | percent of LES TCR binding to EPCR left with the competitor [7]: < 40%
